Data reported in article PMC11214941.

Experiments:
[1] = CHX chase immunoblot, protein remaining; details: glycan lost; control: untreated
[2] = IF of GFP-EREG in HEK293, membrane localisation; details: glycan lost; control: GFP-EREG-WT, untreated
[3] = ELISA of EREG in HEK293 conditioned medium; details: glycan lost; control: EREG-WT

For Epiregulin (EREG): NGI-1, the degradation_or_half_life [1] was “decreases” and the localisation_or_trafficking [2] was “decreases”.
For Epiregulin (EREG): tunicamycin, the degradation_or_half_life [1] was “decreases” and the localisation_or_trafficking [2] was “decreases”.
In the case of Epiregulin (EREG): N47Q, the expression_or_secretion [3] is reported as “decreases” and the localisation_or_trafficking [2] is reported as “decreases”.
